Experimental data published in paper PMC10864358, “Structural and mechanistic characterization of bifunctional heparan sulfate N-deacetylase-N-sulfotransferase 1” (Nature Communications, 2024).

Key:
[1] = molecular target: T1, solubilized recombinant NDST1 (residues 79-882), bifunctional heparan sulfate … (human, UniProt P52848); test: cell-based or functional assay
[2] = molecular target: T1, solubilized recombinant NDST1 (residues …); test: cell-based or functional assay; remark: listed apart in the source
[3] = molecular target: T1, solubilized recombinant NDST1 (residues …); test: differential scanning fluorimetry; NDST1 (1 µg) in 20 µL PBS pH 7.4 with 20X Sypro Orange, with 10.8 µM nAb; 25 to 95 °C; conditions: both partners purified
[4] = molecular target: T2, biotinylated C-terminal Avitagged NDST1 (Homo sapiens, UniProt P52848, biotin on the C-terminal Avitag (BirA biotin-protein ligase)); test: BLI; biotinylated NDST1 immobilised on Octet SA biosensors, nanobodies in PBS-T, 25 °C, 1000 rpm; steady-state responses fitted to a 1:1 model; conditions: both partners purified
T2 construct: human N-deacetylase-N-sulfotransferase 1 (NDST1) with a C-terminal Avitag, made by PCR with tailed primers and subcloned into pOMNIBac; also called biotinylated NDST1; source: insect cells (baculovirus, pOMNIBac), purified; biotinylated with the BirA kit, then a final round of SEC; not shown: Avitag, C-terminal, kept
T2 sequence (P52848 79-882): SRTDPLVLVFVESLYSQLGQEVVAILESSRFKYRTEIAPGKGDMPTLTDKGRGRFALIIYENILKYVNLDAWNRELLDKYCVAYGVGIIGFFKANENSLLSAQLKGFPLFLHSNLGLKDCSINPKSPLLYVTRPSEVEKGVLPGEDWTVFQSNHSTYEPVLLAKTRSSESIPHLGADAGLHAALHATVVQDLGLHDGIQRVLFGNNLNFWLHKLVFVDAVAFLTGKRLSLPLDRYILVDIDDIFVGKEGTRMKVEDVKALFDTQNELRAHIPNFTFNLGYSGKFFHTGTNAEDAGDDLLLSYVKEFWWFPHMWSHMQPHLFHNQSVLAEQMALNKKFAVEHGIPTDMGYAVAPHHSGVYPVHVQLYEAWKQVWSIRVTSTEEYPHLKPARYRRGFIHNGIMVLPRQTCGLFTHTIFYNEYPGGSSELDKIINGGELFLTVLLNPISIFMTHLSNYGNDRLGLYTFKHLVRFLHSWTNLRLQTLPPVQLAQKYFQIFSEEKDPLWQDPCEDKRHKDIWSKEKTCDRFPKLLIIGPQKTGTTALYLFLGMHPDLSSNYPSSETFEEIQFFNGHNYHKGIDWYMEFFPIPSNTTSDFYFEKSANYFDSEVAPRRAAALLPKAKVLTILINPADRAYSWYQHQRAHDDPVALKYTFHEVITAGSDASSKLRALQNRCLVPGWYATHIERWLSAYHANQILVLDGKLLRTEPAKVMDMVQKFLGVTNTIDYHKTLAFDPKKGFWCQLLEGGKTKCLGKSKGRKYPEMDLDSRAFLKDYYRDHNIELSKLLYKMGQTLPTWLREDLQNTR

[5] = molecular target: T2, biotinylated C-terminal Avitagged NDST1; test: SPR; biotinylated NDST1 immobilised on a BiotinCAP sensor chip (Biacore T200), nanobody titrated from 10 µM, 25 °C, 20 mM MES pH 6.5, 100 mM NaCl, 0.05% Tween-20; steady-state responses fitted to a 1:1 model; conditions: both partners purified

T1 sequence (P52848 79-882): as above

Binder | fold decrease in kcat/KM of NDST1 with respect to K5 with 30 µM nAb7, against NDST1 alone (0.06 vs 0.18 min^-1 mg^-1 mL) [1] [fold] | KI of inhibition of NDST1 activity (fluorometric coupled enzyme assay with Sult1a1-K65E-R68G, K5 substrate; Morrison equation) [2] [nM] | stabilization of NDST1 thermal denaturation with 10.8 µM nAb [3] [°C] | Kd [4] [nM] | Kd [5] [nM] | fold enhancement of NDST1 activity in the coupled enzyme assay [1] [fold] | kcat of NDST1 with respect to K5 with 30 µM nAb13, against NDST1 alone (0.26 min^-1 vs 0.14 min^-1) [1] [%] | EC50 of enhancement of NDST1 activity (fluorometric coupled enzyme assay with Sult1a1-K65E-R68G, K5 substrate) [2] [nM]
nAb7 (VHH, llama VHH from an NDST1-immunized library, selected by phage display; Long CDR3 loop R98-F116; also called anti-NDST1 nanobody 7; source: E. coli WK6, periplasmic extract, purified (HisTrap, SEC)) VHH: QVQLVESGGGSVQAGGSLRLSCAASGFNVDDYAIGWFRQSPGKEREGVSCIGGDGTTYYENSVKGRFTVSSDKRDNTVYLQMNNLRPEDTAIYFCAADRSKYCVGKYFSTPSQYDFWGRGTHVTVSS | ~3 | 240 | ~4.4 | 120 | 220 |  |  | 
nAb5 (VHH, llama VHH from an NDST1-immunized library, selected by phage display; also called anti-NDST1 nanobody 5; source: E. coli WK6, periplasmic extract, purified (HisTrap, SEC)) VHH: QVQLVESGGGLVQAGGSLRLSCAASGRTFSSYVMGWFRQAPGKEREFVAAISWSGGTTDYAGSVKGRFTISRDNDRKTMYLEMNDLKPEDTALYYCNFKETWPRTGDYWGPGTQVTVSS |  | 3300 | ~2.6 |  | 570 |  |  | 
nAb1 (VHH, llama VHH from an NDST1-immunized library, selected by phage display; also called anti-NDST1 nanobody 1; source: E. coli WK6, periplasmic extract, purified (HisTrap, SEC)) VHH: QVQLVESGGGLVQAGGSLRLSCAASDRTFTTYAMAWFRRAPPGKEREFVASIRWDGFGTYYTDSVKGRFTISRDSAKNEAYLQMNSLRPEDTGVYYCAAGLLFGNTKGYDHWGQGTQVTVSS |  |  |  | 2670 | 2370 |  |  | 
nAb13 (VHH, in PDB 8CHS nAb13 is modeled only as an all-Calpha chain derived from the nAb7 structure; llama VHH from an NDST1-immunized library, selected by phage display; also called anti-NDST1 nanobody 13; source: E. coli WK6, periplasmic extract, purified (HisTrap, SEC)) VHH: QVQLVESGGGLVQSGGSLRLSCTASRRASSTIGWFRQAPGKEREFVAGINWSLETATYQDSIKDRFTISRDNANNTVYLQMNSLKPEDTAVYYCAASPYRVMGDTTLYPYWGQGTQVTVSS |  |  | ~1.9 | 240 | 530 | ~2 | ~86 | 450
nAb6 (VHH, llama VHH from an NDST1-immunized library, selected by phage display; also called anti-NDST1 nanobody 6; source: E. coli WK6, periplasmic extract, purified (HisTrap, SEC)) VHH: QVQLVESGGDLVQPGGSLRLSCAASKTIFVISDMGWYRQAPGKQRELVAMITSGGTTNYADSVKGRFTISRDNTQNTVWLQMNSLKPEDTAVYYCYARVERWRPTDSWGQGTQVTVSS |  |  |  | 470 | 840 |  |  | 
